{"source": "patent US20230140868A1", "about": "“COMPOSITIONS AND METHODS FOR TREATING CANCER” (Alpha Beta Holdings, LLC, priority 2020, published 2023)", "key": {"[1]": {"tested_on": "αvβ3-expressing human pancreatic xenograft tumors", "test": "αvβ3-expressing human pancreatic xenograft with or without macrophage depletion", "format": "in vivo, nude mice", "text": "Successful depletion of macrophages by clodronate treatment was confirmed by staining tumor sections for the mouse macrophage marker F4/80."}, "[2]": {"tested_on": "αvβ3-expressing tumor cell lines", "test": "Macrophage-mediated killing: Fc dependence, ADCC vs ADCP vs direct killing", "format": "cell-based", "protocol": "(§1) We used the isolated macrophages as effector cells in an antibody-dependent cellular-cytotoxicity (ADCC) assay. […] The ratio of dead target cells (PI-positive) to the total target cell population (CFSE-positive) was calculated as described (Bracher, 2007).\nThese findings were reported in FIGS. 3C-3D of Wettersten et al., Cancer Res. 79:5048 (2019).\nMonoclonal antibodies can direct macrophages to induce tumor cell killing through two primary mechanisms, processes known as antibody-dependent cellular phagocytosis (ADCP) and antibody-dependent cellular cytotoxicity (ADCC). […] The lack of an ADCP response is consistent with high tumor cell expression of CD47, the “don't eat me” signal (Chao, 2012) that tumor cells often exploit to evade phagocytosis."}, "tumor cells [3]": {"tested_on": "tumor cells", "test": "In vitro ADCC with mouse bone marrow derived macrophages (LM609)", "format": "cell-based", "details": "effector: BMDM isolated from healthy mice", "protocol": "Mouse bone marrow-derived macrophages (BMDMs) were aseptically harvested from euthanized 8-10 week-old female C57BL/6 mice by flushing leg bones with RPMI, filtering through 70 μm cell strainers, and incubating in Red Blood Cell Lysing Buffer Hybri-Max™ (Sigma, R7757). Cells were incubated with mouse M-CSF (Peprotech, 315-02) for 7 days before ADCC assays.\nas §1"}, "tumor cells [4]": {"tested_on": "tumor cells", "test": "In vitro ADCC with human PBMCs", "format": "cell-based", "details": "effector: PBMCs isolated from human blood", "protocol": "Human peripheral blood mononuclear cells (PBMCs) and macrophages were isolated using leukoreduction system chambers (LRSC) purchased from the San Diego Blood Bank. PBMCs were isolated from LRSC using Histopaque-1083 (Sigma, 10831) following the manufacturer's protocol. To obtain macrophages, PBMCs were incubated in tissue culture plates with human M-CSF (Peprotech, 300-25) for 5 days.\nas §1\nTo our surprise, LM609-mediated ADCC was not achieved with mouse NK cells or peripheral blood mononuclear cells (PBMCs) isolated from human blood, immune effector cell types to which antibodies are commonly engineered for optimal binding (Listinsky, 2013; Yu, 2017). In fact, NK cells are not correlated with β3 expression in tumors. These findings were reported in FIG. 3E of Wettersten et al., Cancer Res. 79:5048 (2019)."}, "[5]": {"tested_on": "αvβ3-expressing human lung cancer cells", "test": "In vitro ADCC, primary human monocyte-derived macrophages as effector cells (FIG. 10A)", "format": "cell-based", "details": "increasing E:T", "text": "(A) In vitro ADCC for primary human monocyte-derived macrophages as effector cells. (B). In vitro ADCC for human NK cells as effector cells. Graphs show effect of increasing effector-to-target ratio (E:T) on death of αvβ3-expressing human lung cancer cells.\nThis distinction could produce a therapeutic advantage by achieving matching between the antigen (integrin αvβ3) and the types of effector cells that are particularly enriched in αvβ3-expressing tumors, such as macrophages."}, "[6]": {"tested_on": "HCC827-R18 erlotinib-resistant tumor cells", "test": "Re-sensitization of erlotinib-resistant HCC827-R18 xenografts (FIG. 1)", "format": "in vivo, nu/nu mice", "details": "LM609 i.p., 10 mg/kg, twice/week with erlotinib 6.25 mg/kg vs erlotinib alone", "protocol": "HCC827-R18 and PC9-R4L erlotinib-resistant tumor cells generated as reported in Wettersten et al., Cancer Res. 79:5048 (2019), incorporated by reference herein in its entirety, were injected to form subcutaneous flank tumors in nu/nu recipient mice. […] Tumor dimensions were measured biweekly and volume calculated as […].\nTo generate erlotinib-resistant tumors […], HCC827 or PC9 human lung cancer cells (5×10^6 tumor cells in 100 μl of PBS) were subcutaneously injected to the right flank of female nu/nu mice (Charles River, 088, 8-10 weeks old) and tumors were measured with calipers twice per week. Animals with a tumor volume of 100-200 mm^3 were randomly assigned into groups treated with combinations of Captisol (oral, six times/week) or erlotinib (oral, 6.25 mg/kg, six times/week). For each of the individual tumors shown in Figure S3 of Wettersten et al., Cancer Res. 79:5048 (2019)}, vehicle-treated erlotinib sensitive (HCC827-P and PC9-P) and erlotinib-resistant (HCC827-R18 and PC9-R4L) cells were isolated. A gain of αvβ3 expression on the cell surface of the erlotinib-resistant tumor cells was confirmed by flow cytometry."}, "[7]": {"details": "additional αvβ3-expressing tumor cell lines: lung, pancreas, brain, kidney cancer"}}, "data": [{"molecule": "LM609: mouse monoclonal IgG1K antibody that recognizes human integrin αvβ3; SEQ ID NO:11 and 12 (antibody, mAb LM609-mIgG1-kappa Heavy chain; mAb LM609-mIgG1-kappa Light chain) heavy: MNFGLRLIFLVLTLKGVKCEVQLVESGGGLVKPGGSLKLSCAASGFAFSSYDMSWVRQIPEKRLEWVAKVSSGGGSTYYLDTVQGRFTISRDNAKNTLYLQMSSLNSEDTAMYYCARHNYGSFAYWGQGTLVTVSAAKTTPPSVYPLAPGSAAQTNSMVTLGCLVKGYFPEPVTVTWNSGSLSSGVHTFPAVLQSDLYTLSSSVTVPSSTWPSETVTCNVAHPASSTKVDKKIVPRDCGCKPCICTVPEVSSVFIFPPKPKDVLTITLTPKVTCVVVDISKDDPEVQFSWFVDDVEVHTAQTQPREEQFNSTFRSVSELPIMHQDWLNGKEFKCRVNSAAFPAPIEKTISKTKGRPKAPQVYTIPPPKEQMAKDKVSLTCMITDFFPEDITVEWQWNGQPAENYKNTQPIMDTDGSYFVYSKLNVQKSNWEAGNTFTCSVLHEGLHNHHTEKSLSHSPGK light: MVFTPQILGLMLFWISASRGDIVLTQSPATLSVTPGDSVSLSCRASQSISNHLHWYQQKSHESPRLLIKYASQSISGIPSRFSGSGSGTDFTLSINSVETEDFGMYFCQQSNSWPHTFGGGTKLEIKRADAAPTVSIFPPSSEQLTSGGASVVCFLNNFYPKDINVKWKIDGSERQNGVLNSWTDQDSKDSTYSMSSTLTLTKDEYERHNSYTCEATHKTSTSPIVKSFNRNEC", "values": [{"measurement": "anti-tumor effect after macrophage depletion", "setting": "[1]; macrophage depletion using clodronate liposomes", "result": "completely blocked"}, {"measurement": "sensitivity of xenograft tumors to LM609", "setting": "[1]; reported in FIG. 2A of Wettersten et al.", "result": "highly sensitive"}, {"measurement": "ADCP", "setting": "[2]; FIG. 3F of Wettersten et al.", "result": "not ADCP"}, {"measurement": "direct killing", "setting": "[2]; FIG. 3F of Wettersten et al.", "result": "not ADCP or direct killing"}, {"measurement": "ADCP", "setting": "[2]; [7]", "result": "not ADCP"}, {"measurement": "direct killing", "setting": "[2]; [7]", "result": "not ADCP or direct killing"}, {"measurement": "macrophage-mediated ADCC", "setting": "[2]; [7]", "result": "also observed"}, {"measurement": "macrophage-mediated killing", "setting": "[2]; in the presence of an antibody blocking the Fc receptors CD16, CD32, and CD64", "result": "no macrophage-mediated killing"}, {"measurement": "macrophage ADCC", "setting": "[2]; required integrin β3 expression, FIG. 3F of Wettersten et al.", "result": "induced macrophage ADCC"}, {"measurement": "ADCC (tumor cell killing)", "setting": "tumor cells [3]", "result": "could also kill tumor cells"}, {"measurement": "LM609-mediated ADCC", "setting": "tumor cells [4]", "result": "not achieved"}, {"measurement": "ADCC with human macrophages as effector cells", "setting": "[5]", "result": "able to induce ADCC"}, {"measurement": "re-sensitization of resistant tumors to erlotinib (tumor volume)", "setting": "[6]", "result": "able to re-sensitize resistant tumors to the growth inhibitory effects of erlotinib"}]}]}
